# Assay results as given in patent US8785391B2, “Compound and method for treatment of alzheimer's disease and familial dementia” (Alphabeta AB, priority 2010, dated 2014).
# Tests used:
# [1] = biological target: T1, recombinant Bri2(90-236) (Homo sapiens, UniProt Q9Y287); test: ESI-MS binding of peptides to recombinant Bri2(90-236) (substrate specificity); conditions: 20 μM Bri2(90-236); for complex formation of peptide with recombinant Bri2(90-236): 50 μM peptide (peptide/protein ratio 2.5)
# T1 construct: His6 (N, cleaved yes); thioredoxin (N, cleaved yes); made in house; host or cells: E. coli Origami(DE3)pLysS, pET-32c vector
# T1 sequence (Q9Y287 90-236): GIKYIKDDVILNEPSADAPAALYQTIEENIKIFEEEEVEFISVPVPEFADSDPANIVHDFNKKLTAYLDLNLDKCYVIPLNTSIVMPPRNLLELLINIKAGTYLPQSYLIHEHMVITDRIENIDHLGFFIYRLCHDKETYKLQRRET
# Method: Prior to electrospray ionization mass spectrometry (ESI-MS), purified Bri2(90-236) (SEQ ID NO: 2) was rebuffered into 10 mM ammonium acetate, pH 7.0, using spin columns with a 3 kDa cut-off limit (Nanosep, Pall Corp., East Hills, N.Y., USA). Protein and peptides were mixed at 22° C. directly before analysis at a final protein concentration of 20 μM and a final peptide concentration of 50 μM. Data was acquired using a QTOF Ultima API mass spectrometer (Waters, Milford, Mass., USA) equipped with a Z-spray source operated in the positive-ion mode. Samples were introduced via nano-electrospray using metal-plated borosilicate glass capillary needles (Proxeon, Denmark). The source temperature was 80° C., the capillary voltage 1.7 kV, and the cone and RF lens 1 potentials were 100 and 38 V, respectively. The mass spectrometer was operated in single-reflector mode at a resolution of 10 000 (full width half maximum definition), and the mass scale was calibrated using myoglobin. Scans were acquired at a rate of 1 scan per 2 sec between 500 and 4000 m/z. The collision gas was argon at 5.2×10^−5 mbar. Mass spectra were smoothed using the Waters MassLynx software.
# All peptides, with the exception of KFFEYNGKKFFE (SEQ ID NO: 15), ABri23 (SEQ ID NO: 4) and Aβ1-40 (SEQ ID NO: 11), were purchased from Thermo Electron (Darmstadt, Germany). KFFEYNGKKFFE was purchased from Interactiva (Ulm, Germany) and Aβ1-40 and disulfide-linked ABri23 were from Bachem (Bubendorf, Switzerland).
# Peptides, except for KFFEYNGKKFFE, ABri23 and Aβ1-40, were acetylated at the N-terminus and amidated at the C-terminus. The compositions of all peptides were verified by ESI-MS and amino acid analysis. Peptide YYY was dissolved to a final concentration of 10 mM in 30% acetonitrile. VVV, FFF and LLL were dissolved in 50% isopropanol to a final concentration of 10 mM. KKK, GGG and AAA were dissolved in water to a final concentration of 10 mM, while KFFEYNGKKFFE and ABri23 were dissolved in water to final concentrations of 5.6 mM and 1 mM, respectively. All peptide samples were stored at −20° C., except for Aβ1-40 which was dissolved to a final concentration of 1 mM in water directly prior to analysis.
# To further investigate the substrate specificity of Bri2(90-236), homotripeptides with aromatic (YYY, FFF), hydrophobic (VVV, LLL), charged (KKK) or small uncharged (AAA, GGG) side-chains, were employed to study binding, under maintained water solubility. […] The peptide sequences are denoted in each spectrum. Symbols * and ** indicate peaks corresponding to recombinant Bri2(90-236) with one or two peptide ligands, respectively. […] Bri2(90-236) also binds the peptide KFFEYNGKKFFE (FIG. 6).
# [2] = biological target: T2, Aβ1-42 (Homo sapiens, UniProt P05067); test: ThT aggregation kinetics of Aβ1-42 (Example 4); assay type: biochemical; conditions: 0.1 and 1 molar equivalents to Aβ1-42; compared to the same amounts of Bri2(90-236); data not shown
# T2 construct: made in house; host or cells: E. coli
# From the text: Aβ1-40 (SEQ ID NO: 11) and Aβ1-42 (SEQ ID NO: 12) were expressed in E. coli from synthetic genes and purified in batch format using ion exchange and size exclusion steps as described in Walsh et al., FEBS J. 2009, 276, 1266-1281, which results in highly pure monomeric peptide. Purified peptide was divided into 20-30 identical aliquots and frozen. Monomer was then isolated by gel filtration of an aliquot of purified peptide just prior to setting up each of the experiments listed below to remove traces of aggregate formed during freezing and thawing and to exchange buffer to the one used in the respective experiment. Monomer was collected in low-bind Ep-tubes ([…]) on ice, and the concentration was determined by absorbance or amino acid analysis after acid hydrolysis. The monomer was used as is or diluted to the desired concentration for the respective experiment. Bri2(90-236) (SEQ ID NO: 2) was expressed and purified as described in Example 1. Aggregation kinetics were studied by recording the Thioflavin T (ThT) fluorescence intensity as a function of time in a plate reader (FluoStar Omega from BMG Labtech, Offenberg, Germany). The fluorescence was recorded using bottom optics in half-area 96-well PEG-coated black polystyrene plates with clear bottom (Corning 3881) using 440 nm excitation filter and 480 nm emission filter. Aβ monomer was isolated by gel filtration as above in 20 mM Na-phosphate, 200 μM EDTA, 0.02% NaN3 (at pH 7.4 in the case of Aβ1-40 and at pH 8.0 for Aβ1-42) and diluted to 6 or 8 μM in the case of Aβ1-40 and 3 μM in the case of Aβ1-42 in the same buffer and supplemented with 20 μM ThT from a 2 mM stock. To each well in the 96-well plate was first added either 10 μl buffer (20 mM Tris/HCl pH 7.4) or 10 μl of Bri2(90-236) protein or control protein at ten times the desired final concentration in 20 mM Tris/HCl pH 7.4. To each well was then added 90 μl of the ice-cold Aβ monomer solution, and the plate was immediately placed in the plate reader at 37° C., with fluorescence read every 6 minutes with continuous shaking at 100 rpm between readings. […]
# [3] = biological target: T3, Aβ1-40 (Homo sapiens, UniProt P05067); assay type: biochemical; conditions: 0.1 and 1 molar equivalents to Aβ1-40; compared to the same amounts of Bri2(90-236); data not shown
# T3 construct: made in house; host or cells: E. coli
# From the text: Aβ1-40 (SEQ ID NO: 11) and Aβ1-42 (SEQ ID NO: 12) were expressed in E. coli from synthetic genes and purified in batch format using ion exchange and size exclusion steps as described in Walsh et al., FEBS J. 2009, 276, 1266-1281, which results in highly pure monomeric peptide. Purified peptide was divided into 20-30 identical aliquots and frozen. Monomer was then isolated by gel filtration of an aliquot of purified peptide just prior to setting up each of the experiments listed below to remove traces of aggregate formed during freezing and thawing and to exchange buffer to the one used in the respective experiment. Monomer was collected in low-bind Ep-tubes ([…]) on ice, and the concentration was determined by absorbance or amino acid analysis after acid hydrolysis. The monomer was used as is or diluted to the desired concentration for the respective experiment. Bri2(90-236) (SEQ ID NO: 2) was expressed and purified as described in Example 1. Aggregation kinetics were studied by recording the Thioflavin T (ThT) fluorescence intensity as a function of time in a plate reader (FluoStar Omega from BMG Labtech, Offenberg, Germany). The fluorescence was recorded using bottom optics in half-area 96-well PEG-coated black polystyrene plates with clear bottom (Corning 3881) using 440 nm excitation filter and 480 nm emission filter. Aβ monomer was isolated by gel filtration as above in 20 mM Na-phosphate, 200 μM EDTA, 0.02% NaN3 (at pH 7.4 in the case of Aβ1-40 and at pH 8.0 for Aβ1-42) and diluted to 6 or 8 μM in the case of Aβ1-40 and 3 μM in the case of Aβ1-42 in the same buffer and supplemented with 20 μM ThT from a 2 mM stock. To each well in the 96-well plate was first added either 10 μl buffer (20 mM Tris/HCl pH 7.4) or 10 μl of Bri2(90-236) protein or control protein at ten times the desired final concentration in 20 mM Tris/HCl pH 7.4. To each well was then added 90 μl of the ice-cold Aβ monomer solution, and the plate was immediately placed in the plate reader at 37° C., with fluorescence read every 6 minutes with continuous shaking at 100 rpm between readings. Aβ1-40 was studied alone or with Bri2(90-236) at a concentration ranging from 60 nM to 6 μM. Aβ1-42 was studied alone or with Bri2(90-236) at a concentration ranging from 20 nM to 6 μM.
# T2 sequence (P05067 672-713): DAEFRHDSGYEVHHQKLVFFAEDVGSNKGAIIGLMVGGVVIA
# T3 sequence (P05067 672-711): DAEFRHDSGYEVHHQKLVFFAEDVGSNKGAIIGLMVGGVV
Substance,complex formation of peptide with recombinant Bri2(90-236) [1],also measured
AAA: homotripeptide with small uncharged side-chains,No interactions were observed,–
FFF: homotripeptide with aromatic side-chains (Ac-Phe-Phe-Phe-NH2),No interactions were observed,–
GGG: homotripeptide with small uncharged side-chains (Ac-Gly-Gly-Gly-NH2),No interactions were observed,–
KFFEYNGKKFFE,found to form complexes,–
KKK: homotripeptide with charged side-chains (Ac-Lys-Lys-Lys-NH2),No interactions were observed,–
LLL: homotripeptide with hydrophobic side-chains (Ac-Leu-Leu-Leu-NH2),No interactions were observed,–
VVV: homotripeptide with hydrophobic side-chains (Ac-Val-Val-Val-NH2),No interactions were observed,–
YYY: homotripeptide with aromatic side-chains (Ac-Tyr-Tyr-Tyr-NH2),found to form complexes,number of peptide molecules per Bri2(90-236) in complexes ([1]; 50 μM peptide): one or two
cystatin [reference compound],–,effects of control protein on Aβ1-42 aggregation (ThT assay) [2]: small; effects of control protein on Aβ1-40 aggregation (ThT assay) [3]: small
